Article PMC3291655, “LEDGF/p75-Independent HIV-1 Replication Demonstrates a Role for HRP-2 and Remains Sensitive to Inhibition by LEDGINs” (PLoS Pathogens, 2012)

How the values were obtained:
[1] = molecular target: T1, MBP-LEDGF/p75(325-530), maltose binding protein fusion of the C-terminal end of LEDGF/p75 (human, UniProt O75475-1 325-530); experiment: AlphaScreen or HTRF; IN-His6 titrated (2-fold dilutions from 500 to 1.9 nM) against 10 nM MBP fusion; anti-MBP donor beads and Ni2+-chelate acceptor beads; 25 mM Tris-HCl pH 7.4, 150 mM NaCl, 1 mM MgCl2, 0.1% Tween-20, 0.1% BSA; 1 h at 4°C, then 1 h at RT with beads; apparent KD, one-site specific binding with ligand depletion; conditions: both partners purified
T1 construct: also called MBP-LEDGF_(325–530); LEDGF_(325–530); source: E. coli BL21(DE3), purified (amylose resin)
T1 sequence (looked up): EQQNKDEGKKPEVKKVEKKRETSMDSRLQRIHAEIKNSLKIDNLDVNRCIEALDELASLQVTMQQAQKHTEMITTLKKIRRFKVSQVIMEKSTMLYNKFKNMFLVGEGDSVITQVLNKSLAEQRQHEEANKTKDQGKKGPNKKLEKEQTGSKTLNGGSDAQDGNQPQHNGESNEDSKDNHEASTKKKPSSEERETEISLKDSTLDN

[2] = molecular target: T2, MBP-HRP-2(448-670), maltose binding protein fusion of the C-terminal part of Hepatoma-derived growth factor … (human, UniProt Q7Z4V5-2 448-670); experiment: as above; conditions: both partners purified
T2 construct: Hepatoma-derived growth factor related protein 2 (HRP-2), human, C-terminal part aa 448-670, which holds the IBD (aa 470-593); the range called the C-terminal end stops at 670, which fits the 670-residue isoform; amplified from p3xFlagHRP-2 and ligated into pMAL-c2E; source: E. coli, purified (amylose resin)
T2 sequence (looked up): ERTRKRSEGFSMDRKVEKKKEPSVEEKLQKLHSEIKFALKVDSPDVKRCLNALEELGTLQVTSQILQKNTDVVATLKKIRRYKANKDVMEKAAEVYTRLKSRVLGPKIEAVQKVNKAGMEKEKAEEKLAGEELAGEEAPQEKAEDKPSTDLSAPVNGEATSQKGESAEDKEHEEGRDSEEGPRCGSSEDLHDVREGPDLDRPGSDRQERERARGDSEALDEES

B1: HIV-1 integrase with a C-terminal His6 tag (enzyme)
chain: FLDGIDKAQEEHEKYHSNWRAMASDFNLPPVVAKEIVASCDKCQLKGEAMHGQVDCSPGIWQLDCTHLEGKVILVAVHVASGYIEAEVIPAETGQETAYFLLKLAGRWPVKTVHTDNGSNFTSTTVKAACWWAGIKQEFGIPYNPQSQGVIESMNKELKKIIGQVRDQAEHLKTAVQMAVFIHNFKRKGGIGGYSAGERIVDIIATDIQTKELQKQITKIQNFRVYYRDSRDPVWKGPAKLLWKGEGAVVIQDNSDIKVVPRRKAKIIRDYGKQMAGDDCVASRQDED
B1 showed a Kd [1] of 6.6 nM and a Kd [2] of 89.8 nM.
